Assays:
[1] = tested on: endogenous AHAS genes (three homoeologous copies); experiment: transient assay of ZFN-mediated NHEJ-directed AHAS editing in biolistically transfected scutella; assay type: cell-based, Triticum aestivum; conditions: for Editing Frequency (ppm): NHEJ, scutella; for molecular evidence for ZFN-mediated NHEJ-directed gene editing: samples of SEC protoplasts and scutella, with pDAB109350 (pDAS000149, pDAS000150 also pDAB109360)
Description: (§1) The first type of donor design was a linear, double stranded DNA molecule comprising 41-bp of sequence that shared no homology with the endogenous AHAS genes in wheat. Two donor DNA molecules were designed, each to target the three homoeologous copies of the AHAS gene. Both donor DNA molecules had protruding 5′ and 3′ ends to provide ligation overhangs to facilitate ZFN-mediated NHEJ-directed DNA repair. The two donor DNA molecules differed by the sequence at their protruding 3′ end. The first donor DNA molecule, pDAS000152 (SEQ ID NO:74 and SEQ ID NO:75), was designed to provide ligation overhangs that were compatible with those generated by cleavage of the endogenous AHAS genes by ZFNs 29732 and 29730 (encoded on plasmid pDAB109350) and to result in the insertion of the 41-bp donor molecule into the endogenous AHAS gene at the site of the double strand DNA break via NHEJ-directed DNA repair. The second donor DNA molecule pDAS000149 (SEQ ID NO: 76 and SEQ ID NO:77) was designed to provide ligation overhangs that were compatible with those generated by the dual cleavage of the endogenous AHAS genes by ZFNs 29732 and 29730 (encoded on plasmid pDAB109350) and ZFNs 30012 and 30018 (encoded on plasmid pDAB109360) and to result in the replacement of the endogenous AHAS sequence contained between the two double strand DNA breaks created by the ZFNs with the 41-bp donor molecule via NHEJ-directed DNA repair.
(§2) The second type of donor was a plasmid DNA vector containing 41-bp of sequence that shared no homology with the endogenous AHAS genes in wheat and that was flanked on either side by sequence that was recognized by the ZFN(s) used to create double strand DNA breaks in the endogenous AHAS genes. This donor design allowed in planta release of the unique 41-bp sequence from the plasmid DNA molecule by the same ZFN(s) used to cleave target sites in the endogenous AHAS genes, and simultaneous generation of protruding ends that were suitable for overhang ligation of the released 41-bp sequence into the endogenous AHAS genes via NHEJ-directed DNA repair. Two plasmid donor DNA molecules were designed, each to target the three homoeologous copies of the AHAS gene. The first plasmid donor molecule, pDAS000153 (SED ID NO:78 and SEQ ID NO:79) (FIG. 8), was designed to provide ligation overhangs on the released 41-bp DNA fragment that were compatible with those generated by cleavage of the endogenous AHAS genes by ZFNs 29732 and 29730 (encoded on plasmid pDAB109350). The second plasmid donor molecule, pDAS000150 (SEQ ID NO:80 and SEQ ID NO:81) (FIG. 9), was designed to provide ligation overhangs on the released 41-bp DNA fragment that were at one end compatible with those generated by ZFNs 29732 and 29730 (encoded on plasmid pDAB109350) and at the other end compatible with those generated by ZFNs 30012 and 30018 (encoded on plasmid pDAB109360). This design allowed the replacement of the endogenous AHAS sequence contained between the two double strand DNA breaks created by ZFNs 29732 and 29730 and ZFNs 30012 and 30018 with the 41-bp donor molecule sequence.
(§3) Seedlings of the donor wheat line were grown in an environment controlled growth room maintained at 18/16° C. (day/night) and a 16/8 hour (day/night) photoperiod with lighting provided at […]. Wheat spikes were collected at 12-14 days post-anthesis and were surface sterilized by soaking for 1 min in 70% (v/v) ethanol. The spikes were threshed and the immature seeds were sterilized for 15 min in 17% (v/v) bleach with gentle shaking, followed by rinsing at least three times with sterile distilled water. The embryos were aseptically isolated from the immature seeds under a dissecting microscope. The embryonic axis was removed using a sharp scalpel and discarded. The scutella were placed into a 9 cm PETRI™ dish containing osmotic MS (E3 maltose) medium, with the uncut scutellum oriented upwards. A total of 20 scutella were plated onto each 9 cm PETRI™ dish. […]

[2] = tested on: endogenous AHAS genes (three homoeologous copies); experiment: transient assay of ZFN-mediated NHEJ-directed AHAS editing in PEG-transfected SEC protoplasts; assay type: cell-based, Triticum aestivum; conditions: SEC protoplast
Description: as §1, §2
as §3, with “2-4 medium without TIMENTIN™,” for “osmotic MS (E3 maltose) medium,”, “25” for “20”

[3] = wheat sub-genome A, ZFN 29732-2A-29730, ratio 5:1
[4] = wheat sub-genome A, ZFN 29732-2A-29730, ratio 10:1
[5] = wheat sub-genome A, ZFN n/a (donor only), average of three biological replicates
[6] = wheat sub-genome B, ZFN 29732-2A-29730, ratio 5:1
[7] = wheat sub-genome B, ZFN 29732-2A-29730, ratio 10:1
[8] = wheat sub-genome B, ZFN n/a (donor only)
[9] = wheat sub-genome D, ZFN 29732-2A-29730, ratio 5:1
[10] = wheat sub-genome D, ZFN 29732-2A-29730, ratio 10:1
[11] = wheat sub-genome D, ZFN n/a (donor only)
[12] = wheat sub-genome A, ZFN 29732-2A-29730, ratio 20:1
[13] = wheat sub-genome B, ZFN 29732-2A-29730, ratio 20:1
[14] = wheat sub-genome D, ZFN 29732-2A-29730, ratio 20:1

Molecule	Editing Frequency (ppm) [1, 3] [ppm]	Editing Frequency (ppm) [1, 4] [ppm]	Editing Frequency (ppm) [1, 5] [ppm]	Editing Frequency (ppm) [1, 6] [ppm]	Editing Frequency (ppm) [1, 7] [ppm]	Editing Frequency (ppm) [1, 8] [ppm]	Editing Frequency (ppm) [1, 9] [ppm]	Editing Frequency (ppm) [1, 10] [ppm]	Editing Frequency (ppm) [1, 11] [ppm]	molecular evidence for ZFN-mediated NHEJ-directed gene editing [1]	Editing Frequency (ppm) [2, 3] [ppm]	Editing Frequency (ppm) [2, 4] [ppm]	Editing Frequency (ppm) [2, 12] [ppm]	Editing Frequency (ppm) [2, 5] [ppm]	Editing Frequency (ppm) [2, 6] [ppm]	Editing Frequency (ppm) [2, 7] [ppm]	Editing Frequency (ppm) [2, 13] [ppm]	Editing Frequency (ppm) [2, 8] [ppm]	Editing Frequency (ppm) [2, 9] [ppm]	Editing Frequency (ppm) [2, 10] [ppm]	other results
pDAS000150: plasmid donor with 41-bp sequence flanked by sites for ZFNs 29732/29730 and 30012/30018; SEQ ID NO:80, 81 (nucleic acid, pDAS000150) chain 1: TGGATATCATAGTCCCGCATCAGGAGCACGTGCTGCCTATGATCCCAAGCGGTGGTGCTTTCAAGGACATGATCATGGGTTAGGTGCTGGTGGTCCGAAGGTCCACGCCGCCAACTACGGATGGCAGGACCTCGTACTGAAATTTCGACCTACAAGACCTACAAGTGTGACATGCGCAATCAGCATGATGCCCGCGT chain 2: ACGCGGGCATCATGCTGATTGCGCATGTCACACTTGTAGGTCTTGTAGGTCGAAATTTCAGTACGAGGTCCTGCCATCCGTAGTTGGCGGCGTGGACCTTCGGACCACCAGCACCTAACCCATGATCATGTCCTTGAAAGCACCACCGCTTGGGATCATAGGCAGCACGTGCTCCTGATGCGGGACTATGATATCCA	1	0	0	0	0	0	4	0	0	Limited evidence	0	0	0	0	0	0	0	0	0	0	Editing Frequency (ppm) [2, 14]: 0 ppm; Editing Frequency (ppm) [2, 11]: 0 ppm
pDAS000153: plasmid donor with 41-bp sequence flanked by ZFN 29732/29730 sites; SEQ ID NO:78, 79 (nucleic acid, pDAS000153) chain 1: TGGATATCATAGTCCCGCATCAGGAGCACGTGCTGCCTATGATCCCAAGCGGTGGTGCTTTCAAGGACATGATCATGGGTTAGGTGCTGGTGGTCCGAAGGTCCACGCCGCCAACTACGTGGATATCATAGTCCCGCATCAGGAGCACGTGCTGCCTATGATCCCAAGCGGTGGTGCTTTCAAGGACATGATCATGG chain 2: CCATGATCATGTCCTTGAAAGCACCACCGCTTGGGATCATAGGCAGCACGTGCTCCTGATGCGGGACTATGATATCCACGTAGTTGGCGGCGTGGACCTTCGGACCACCAGCACCTAACCCATGATCATGTCCTTGAAAGCACCACCGCTTGGGATCATAGGCAGCACGTGCTCCTGATGCGGGACTATGATATCCA	4	0	0	0	0	0	0	0	0	poor evidence	0	0	0	0	0	0	0	0	0	0	Editing Frequency (ppm) [2, 14]: 0 ppm; Editing Frequency (ppm) [2, 11]: 0 ppm
